The numbers were not newly measured in publication PMC10373500, which cites them from elsewhere.

One may read the pKa as the pH at which an ionisable group is half protonated.

For the series, the target named is Asp76 (UniProt position 102, GSPGADRVVFN).

Take “Ribonuclease T1 (RNase T1) (not stated in the article (Aspergillus oryzae from outside knowledge))”: the pKa is reported as 0.5.
